Assay results as given in article PMC8854672, “Tracing transport of protein aggregates in microgravity versus unit gravity crystallization” (NPJ Microgravity, 2022).
“And” between values parts separate entries of the source, which are not always exact repeats. Equal entries are not always repeated.

Target: the molecule itself
Assay: SEC; preparative HiLoad 26/600 Superdex 200 column after glutathione affinity chromatography; tetramer V_elution about 170 mL

B1: Plasmodium falciparum glutathione-S-transferase (enzyme, UniProt Q8ILQ7 1-211, looked up)
chain: MGDNIVLYYFDARGKAELIRLIFAYLGIEYTDKRFGVNGDAFVEFKNFKKEKDTPFEQVPILQIGDLILAQSQAIVRYLSKKYNICGESELNEFYADMIFCGVQDIHYKFNNTNLFKQNETTFLNEDLPKWSGYFEKLLKKNHTNNNNDKYYFVGNNLTYADLAVFNLYDDIETKYPSSLKNFPLLKAHNEFISNLPNIKNYITNRKESVY
notes: glutathione S-transferase of Plasmodium falciparum; recombinant; printed M.W. of the dimer ~56 kDa; Found as dimer and as tetramer; The dimer for crystallization was eluted with and stabilised by 10 mM S-(p-bromobenzyl)-GSH; The tetramer was labelled with Alexa Fluor 488 only after SEC and DLS; also called PfGST
  stoichiometry N: 2 and 4
